# From patent publication US20230272109A1
# B1: RGCLN18.2 antibody (antibody, human IgG1, kappa, V domains shown)
# VH: QVQLVQSGAEVKKPGASVKVSCKASGYAFTNYLIEWVRQAPGQGLEWMGLINPGSGGTNYNEKFKGRVTMTRDTSTSTVYMELSSLRSEDTAVYYCARGGYYGNSFAYWGQGTLVTVSS
# VL: DIVMTQSPLSLPVTPGEPASISCKSSQSLLNSGNQKNYLTWYLQKPGQSPQLLIYWASTRESGVPDRFSGSGSGTDFTLKISRVEAEDVGVYYCQNAYYYPYTFGGGTKVEIKR
# Molecular target: Claudin 18.2 (UniProt P56856)
# Assay: flow cytometry (FACS), cells not given
binder,measurement,value
B1,EC50,0.166 µg/mL
